Experimental findings from article PMC5811392 (Biochemistry, 2018) are described below.

The target in test [1] is T1, Human p53 DNA-binding domain (residues 88-312) (human, UniProt P04637 88-312). The test can be described thus: NMR titration.
Test [2] concerns the target T1, Human p53 DNA-binding domain (residues …). The test is described as follows: fluorescence polarisation. (Fluorescence polarisation rises when a labelled molecule tumbles more slowly, as on binding a larger partner.)
The target is the same in test [3]. The test can be described thus: ITC.

T1 sequence (P04637 88-312): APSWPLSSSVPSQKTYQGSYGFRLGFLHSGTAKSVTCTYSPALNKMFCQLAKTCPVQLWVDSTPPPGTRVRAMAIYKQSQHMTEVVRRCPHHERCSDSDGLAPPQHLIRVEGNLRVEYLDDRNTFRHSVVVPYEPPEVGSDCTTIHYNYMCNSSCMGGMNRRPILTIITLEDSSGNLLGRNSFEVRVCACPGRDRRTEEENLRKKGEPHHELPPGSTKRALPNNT

B1: full length p23 (residues 1-160) (natural protein, human, UniProt Q15185 1-160, looked up)
chain: MQPASAKWYDRRDYVFIEFCVEDSKDVNVNFEKSKLTFSCLGGSDNFKHLNEIDLFHCIDPNDSKHKRTDRSILCCLRKGESGQSWPRLTKERAKLNWLSVDFNNWKDWEDDSDEDMSNFDRFSEMMNNMGGDEDVDLPEVDGADDDSQDSDDEKMPDLE
Regarding B1, the values for the Kd in test [1], in test [2] and in test [3] were 8 ± 2 µM, 21 ± 7 µM and 7 ± 2 µM, respectively. The molecule also registered a dH in test [3] of -1.9 ± 100 kcal/mol.

B2: GB1-p23 (110-160) (domain or fragment, human, UniProt Q15185 110-160, looked up)
chain: EDDSDEDMSNFDRFSEMMNNMGGDEDVDLPEVDGADDDSQDSDDEKMPDLE
In test [1], B2 returned a dissociation constant (Kd) of 6 ± 4 µM.

B3: GB1-p23 (120-160) (domain or fragment, human, UniProt Q15185 120-160, looked up)
chain: FDRFSEMMNNMGGDEDVDLPEVDGADDDSQDSDDEKMPDLE
As to B3, the Kd in test [3] was 24 ± 15 µM.

The term Kd denotes a measure of binding affinity in units of concentration. Low values mean higher affinity, high ones lower affinity.
